Measured values reported in PMC9482650, “Quantitative fragmentomics allow affinity mapping of interactomes” (Nature Communications, 2022).
Substitutions are numbered along the chain they refer to.

T1: APBA1_1, Q02410
T1 sequence (Q02410 651-752, limits assumed, looked up): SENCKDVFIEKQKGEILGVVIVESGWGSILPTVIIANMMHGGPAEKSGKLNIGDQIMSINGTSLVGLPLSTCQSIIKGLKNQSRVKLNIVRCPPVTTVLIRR

T2: APBA1_2, Q02410
T2 sequence (Q02410 742-832, limits assumed, looked up): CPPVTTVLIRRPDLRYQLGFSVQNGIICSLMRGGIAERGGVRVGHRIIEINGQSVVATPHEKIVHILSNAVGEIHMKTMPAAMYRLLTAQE

T3: APBA2_2, Q99767
T3 sequence (Q99767 654-744, limits assumed, looked up): T2 sequence (Q02410 742-832, limits assumed, looked up) with R10K, R15K, P59A, H65Q, I66A, A70S, Y84F, A89G

T4: ARHGEF11, O15085
T4 sequence (O15085 42-136, limits assumed, looked up): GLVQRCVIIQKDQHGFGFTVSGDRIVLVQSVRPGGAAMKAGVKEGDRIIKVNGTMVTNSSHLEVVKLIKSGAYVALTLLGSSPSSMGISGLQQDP

T5: DFNB31_1, Q9P202
T5 sequence (Q9P202 135-233, limits assumed, looked up): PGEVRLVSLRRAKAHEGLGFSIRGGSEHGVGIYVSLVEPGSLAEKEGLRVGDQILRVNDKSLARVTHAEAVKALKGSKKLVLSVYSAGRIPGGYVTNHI

T6: DLG3_3, Q92796
T6 sequence (Q92796 374-475, limits assumed, looked up): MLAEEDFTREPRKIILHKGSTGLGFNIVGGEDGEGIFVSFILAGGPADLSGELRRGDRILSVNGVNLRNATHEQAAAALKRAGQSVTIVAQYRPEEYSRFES

T7: GRIP1_2, Q9Y3R0
T7 sequence (Q9Y3R0 145-248, limits assumed, looked up): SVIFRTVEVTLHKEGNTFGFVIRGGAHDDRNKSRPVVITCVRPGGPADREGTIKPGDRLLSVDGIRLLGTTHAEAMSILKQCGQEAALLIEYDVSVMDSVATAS

T8: GRIP1_3, Q9Y3R0
T8 sequence (Q9Y3R0 247-346, limits assumed, looked up): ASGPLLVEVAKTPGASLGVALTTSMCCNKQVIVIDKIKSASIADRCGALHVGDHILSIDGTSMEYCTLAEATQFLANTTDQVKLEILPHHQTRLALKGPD

T9: GRIP1_4, Q9Y3R0
T9 sequence (Q9Y3R0 467-571, limits assumed, looked up): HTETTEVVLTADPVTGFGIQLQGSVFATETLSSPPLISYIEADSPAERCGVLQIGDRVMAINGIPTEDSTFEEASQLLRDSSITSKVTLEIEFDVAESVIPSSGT

T10: HTRA4, P83105
T10 sequence (P83105 378-476, limits assumed, looked up): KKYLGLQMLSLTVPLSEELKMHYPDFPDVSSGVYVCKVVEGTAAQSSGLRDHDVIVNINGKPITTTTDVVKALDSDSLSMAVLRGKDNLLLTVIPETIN

T11: MPP6, Q9NZW5
T11 sequence (Q9NZW5 125-219, limits assumed, looked up): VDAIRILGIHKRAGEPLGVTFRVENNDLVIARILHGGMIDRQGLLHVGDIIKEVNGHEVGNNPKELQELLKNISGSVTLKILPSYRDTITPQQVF

T12: MPP7, Q5T2T1
T12 sequence (Q5T2T1 134-230, limits assumed, looked up): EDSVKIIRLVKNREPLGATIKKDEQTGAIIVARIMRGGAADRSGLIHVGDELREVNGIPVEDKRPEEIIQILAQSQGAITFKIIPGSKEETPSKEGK

T13: PDZD7_3, Q9H5P4
T13 sequence (Q9H5P4 857-944, limits assumed, looked up): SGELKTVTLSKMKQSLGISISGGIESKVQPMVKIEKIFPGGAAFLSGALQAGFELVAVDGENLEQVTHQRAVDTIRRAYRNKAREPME

T14: SNTG2, Q9NY99
T14 sequence (Q9NY99 68-166, limits assumed, looked up): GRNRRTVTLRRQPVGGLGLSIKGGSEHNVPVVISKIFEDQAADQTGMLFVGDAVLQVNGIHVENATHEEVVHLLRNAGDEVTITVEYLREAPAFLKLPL

B1: PTPN18, Q99952 (peptide)
chain: RDPPAEWTRV
B2: CLDN3, O15551 (peptide)
chain: GTGYDRKDYV

Biological target: T1, APBA1_1, Q02410
Assay: holdup assay
Design: key: below the threshold = too weak to quantify, mostly under pKd 3.1 to 4
Conditions: plain residues with an end cap or a label only (N-terminal biotin on a linker: ado-ado)

Binder | pKd
B1 | below the threshold
B2 | below the threshold

Biological target: T2, APBA1_2, Q02410
Assay: holdup assay
Design: key: below the threshold = too weak to quantify, mostly under pKd 3.1 to 4
Conditions: plain residues with an end cap or a label only (N-terminal biotin on a linker: ado-ado)

Binder | pKd
B1 | 4.25
B2 | 4.24

Biological target: T3, APBA2_2, Q99767
Assay: holdup assay
Design: key: below the threshold = too weak to quantify, mostly under pKd 3.1 to 4
Conditions: plain residues with an end cap or a label only (N-terminal biotin on a linker: ado-ado)

Binder | pKd
B1 | below the threshold
B2 | below the threshold

Biological target: T4, ARHGEF11, O15085
Assay: holdup assay
Design: key: below the threshold = too weak to quantify, mostly under pKd 3.1 to 4
Conditions: plain residues with an end cap or a label only (N-terminal biotin on a linker: ado-ado)

Binder | pKd
B1 | 4.38
B2 | 3.9

Biological target: T5, DFNB31_1, Q9P202
Assay: holdup assay
Design: key: below the threshold = too weak to quantify, mostly under pKd 3.1 to 4
Conditions: plain residues with an end cap or a label only (N-terminal biotin on a linker: ado-ado)

Binder | pKd
B1 | 4.17
B2 | below the threshold

Biological target: DLG2_3, Q15700
Assay: holdup assay
Design: key: below the threshold = too weak to quantify, mostly under pKd 3.1 to 4
Conditions: plain residues with an end cap or a label only (N-terminal biotin on a linker: ado-ado)

Binder | pKd
B1 | 3.54
B2 | below the threshold

Biological target: T6, DLG3_3, Q92796
Assay: holdup assay
Design: key: below the threshold = too weak to quantify, mostly under pKd 3.1 to 4
Conditions: plain residues with an end cap or a label only (N-terminal biotin on a linker: ado-ado)

Binder | pKd
B1 | below the threshold
B2 | 3.64

Biological target: DLG5_1, Q8TDM6
Sequence (Q8TDM6 617-713): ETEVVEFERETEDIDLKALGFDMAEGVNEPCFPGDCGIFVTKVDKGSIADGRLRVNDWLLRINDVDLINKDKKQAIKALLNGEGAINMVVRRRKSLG
Assay: holdup assay
Design: key: below the threshold = too weak to quantify, mostly under pKd 3.1 to 4
Conditions: plain residues with an end cap or a label only (N-terminal biotin on a linker: ado-ado)

Binder | pKd
B1 | below the threshold
B2 | 3.59

Biological target: GRID2IP_2, A4D2P6
Sequence (A4D2P6 272-370): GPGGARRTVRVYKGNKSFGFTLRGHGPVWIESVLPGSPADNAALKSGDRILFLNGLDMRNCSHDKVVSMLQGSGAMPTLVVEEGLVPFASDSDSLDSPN
Assay: holdup assay
Design: key: below the threshold = too weak to quantify, mostly under pKd 3.1 to 4
Conditions: plain residues with an end cap or a label only (N-terminal biotin on a linker: ado-ado)

Binder | pKd
B1 | 4.57
B2 | 3.68

Biological target: T7, GRIP1_2, Q9Y3R0
Assay: holdup assay
Design: key: below the threshold = too weak to quantify, mostly under pKd 3.1 to 4
Conditions: plain residues with an end cap or a label only (N-terminal biotin on a linker: ado-ado)

Binder | pKd
B1 | below the threshold
B2 | below the threshold

Biological target: T8, GRIP1_3, Q9Y3R0
Assay: holdup assay
Design: key: below the threshold = too weak to quantify, mostly under pKd 3.1 to 4
Conditions: plain residues with an end cap or a label only (N-terminal biotin on a linker: ado-ado)

Binder | pKd
B1 | below the threshold
B2 | below the threshold

Biological target: T9, GRIP1_4, Q9Y3R0
Assay: holdup assay
Design: key: below the threshold = too weak to quantify, mostly under pKd 3.1 to 4
Conditions: plain residues with an end cap or a label only (N-terminal biotin on a linker: ado-ado)

Binder | pKd
B1 | below the threshold
B2 | below the threshold

Biological target: GRIP2_5, Q9C0E4
Sequence (Q9C0E4 544-642): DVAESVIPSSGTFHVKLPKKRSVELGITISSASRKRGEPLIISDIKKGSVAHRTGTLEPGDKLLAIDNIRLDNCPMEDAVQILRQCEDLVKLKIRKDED
Assay: holdup assay
Design: key: below the threshold = too weak to quantify, mostly under pKd 3.1 to 4
Conditions: plain residues with an end cap or a label only (N-terminal biotin on a linker: ado-ado)

Binder | pKd
B1 | below the threshold
B2 | below the threshold

Biological target: T10, HTRA4, P83105
Assay: holdup assay
Design: key: below the threshold = too weak to quantify, mostly under pKd 3.1 to 4
Conditions: plain residues with an end cap or a label only (N-terminal biotin on a linker: ado-ado)

Binder | pKd
B1 | 4.01
B2 | below the threshold

Biological target: IL16_1, Q14005
Sequence (Q14005 210-306): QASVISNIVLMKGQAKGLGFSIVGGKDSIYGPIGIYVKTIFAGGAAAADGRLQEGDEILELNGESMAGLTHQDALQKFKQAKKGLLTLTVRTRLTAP
Assay: holdup assay
Design: key: below the threshold = too weak to quantify, mostly under pKd 3.1 to 4
Conditions: plain residues with an end cap or a label only (N-terminal biotin on a linker: ado-ado)

Binder | pKd
B1 | below the threshold
B2 | below the threshold

Biological target: IL16_3, Q14005
Sequence (Q14005 1107-1207): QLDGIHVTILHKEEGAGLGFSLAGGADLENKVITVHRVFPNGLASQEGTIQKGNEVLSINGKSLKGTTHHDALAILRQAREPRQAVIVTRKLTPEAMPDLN
Assay: holdup assay
Design: key: below the threshold = too weak to quantify, mostly under pKd 3.1 to 4
Conditions: plain residues with an end cap or a label only (N-terminal biotin on a linker: ado-ado)

Binder | pKd
B1 | below the threshold
B2 | below the threshold

Biological target: Inadl_4, Q8NI35
Sequence (Q8NI35 547-651): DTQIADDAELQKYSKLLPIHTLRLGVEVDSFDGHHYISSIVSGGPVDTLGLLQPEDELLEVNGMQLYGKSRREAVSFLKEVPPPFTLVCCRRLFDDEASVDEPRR
Assay: holdup assay
Design: key: below the threshold = too weak to quantify, mostly under pKd 3.1 to 4
Conditions: plain residues with an end cap or a label only (N-terminal biotin on a linker: ado-ado)

Binder | pKd
B1 | below the threshold
B2 | below the threshold

Biological target: MAST1, Q9Y2H9
Sequence (Q9Y2H9 962-1065): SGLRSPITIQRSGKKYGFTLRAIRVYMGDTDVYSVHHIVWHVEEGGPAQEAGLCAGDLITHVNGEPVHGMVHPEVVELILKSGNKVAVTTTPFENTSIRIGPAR
Assay: holdup assay
Design: key: below the threshold = too weak to quantify, mostly under pKd 3.1 to 4
Conditions: plain residues with an end cap or a label only (N-terminal biotin on a linker: ado-ado)

Binder | pKd
B1 | 4.97
B2 | 4.03

Biological target: T11, MPP6, Q9NZW5
Assay: holdup assay
Design: key: below the threshold = too weak to quantify, mostly under pKd 3.1 to 4
Conditions: plain residues with an end cap or a label only (N-terminal biotin on a linker: ado-ado)

Binder | pKd
B1 | below the threshold
B2 | below the threshold

Biological target: T12, MPP7, Q5T2T1
Assay: holdup assay
Design: key: below the threshold = too weak to quantify, mostly under pKd 3.1 to 4
Conditions: plain residues with an end cap or a label only (N-terminal biotin on a linker: ado-ado)

Binder | pKd
B1 | below the threshold
B2 | below the threshold

Biological target: NHERF2_2, Q15599
Sequence (Q15599 142-238): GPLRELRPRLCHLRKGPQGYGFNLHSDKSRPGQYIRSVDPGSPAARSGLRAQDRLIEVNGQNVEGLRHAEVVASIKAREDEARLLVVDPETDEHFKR
Assay: holdup assay
Design: key: below the threshold = too weak to quantify, mostly under pKd 3.1 to 4
Conditions: plain residues with an end cap or a label only (N-terminal biotin on a linker: ado-ado)

Binder | pKd
B1 | 4.45
B2 | 3.6

Biological target: PARD3_3, Q8TEW0
Sequence (Q8TEW0 582-685): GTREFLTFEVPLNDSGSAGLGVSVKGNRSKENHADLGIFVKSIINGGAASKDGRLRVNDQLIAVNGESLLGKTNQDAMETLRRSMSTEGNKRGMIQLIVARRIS
Assay: holdup assay
Design: key: below the threshold = too weak to quantify, mostly under pKd 3.1 to 4
Conditions: plain residues with an end cap or a label only (N-terminal biotin on a linker: ado-ado)

Binder | pKd
B1 | 3.54
B2 | 3.52

Biological target: T13, PDZD7_3, Q9H5P4
Assay: holdup assay
Design: key: below the threshold = too weak to quantify, mostly under pKd 3.1 to 4
Conditions: plain residues with an end cap or a label only (N-terminal biotin on a linker: ado-ado)

Binder | pKd
B1 | 4.83
B2 | 4

Biological target: T14, SNTG2, Q9NY99
Assay: holdup assay
Design: key: below the threshold = too weak to quantify, mostly under pKd 3.1 to 4
Conditions: plain residues with an end cap or a label only (N-terminal biotin on a linker: ado-ado)

Binder | pKd
B1 | 4.19
B2 | below the threshold
